Test: yeast display, Sf9 membrane polyspecificity reagent, FACS + sequencing; frameworks hold sequencing errors
Method in brief: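 A nanobody's polyreactivity label depends on the gate it was sorted from. Yeast display cells were stained with 10% biotinylated, detergent-solubilized Sf9 membrane reagent for 1 hour at 4 °C, enriched on streptavidin microbeads and sorted by FACS. The low and high (top ~1%) gates were set on anti-HA fluorescence for expression and streptavidin fluorescence for reagent binding.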

Row | Sequence | polyreactivity (PSR sort gate)
1 | QVQLVESGGCLVQAGGSLRLSCPASGSTIGKYAMGWYRQAPRKERELFATITVSGGNTNYADSVKGRITISRDNAKITVYLQMNSLKPEDTAVYYCAARKYVAGHKYIMKYWGQGTQVTVSS | low polyreactivity
2 | QVQLVESGGGLVQAGGSLRLSCAASGRIFTDYTMGWYRQAPGKERELVAAISYSGGSTYYADSVKGRFTISRDNAKNSVYLQMNSLKPEDTAVYYCNRDPQKYRWIPRYDYWGHGTQVTVSS | low polyreactivity
3 | QVQLVESGGGLVQAGGSLRITCAASGSTYYHNVMGRYRPAPGKERELVARISSGGGSTSYADSVKGRFTISRDNAKNTVYLQMNSLKPEETAVYYCNKYYTKRGYFLPWYHYGSWGQGTQVTLSS | high polyreactivity
4 | QFQLEESGGGLVQAGGSLRLSCAASGRIFPTYTRGWYSQAPGKERVLVAGISYSGTSTSYADSVKGRFTMSRDNAKNSVYLELNSLKPEDTAVYYCAAKYYGRSFYYGYDYWGQGTQVTVSS | low polyreactivity
5 | QVQLVESGGGLVQAGGSLRLSCAASGLTFWRYTMGWYRPAPGKERELVAVITYRGGSTYYADSVKGRFTISRDYAKNTVYLQMNSLKPEDTAVYYCAAGLSTYGLTYDYWGQGTQVTVSS | high polyreactivity
6 | QVQLVESGGGLVHGGGSLSLSFDASGSIFRVYPMGWYSPAPGKERELVAAIDSGPSTTYADCVTGRFTISRDNAKNTVYLLMNRLKPVDTEVYCFAADGWLWSFTGDGWWFDYWGQGTQVSVSS | low polyreactivity
7 | QVQLVESGGRLVQARGSLRLSCAASGSIFATYVMGWYRQAPGKERELVATITYSGDSTYYADSVKGRFTISRDNAKNTVYLQMNSVKPEDTAVYYCAADYFTLYPYRGFDYWGQGTQVTVSS | low polyreactivity
8 | QVQLVESVGGLVQAGGSLRLTCAASVSIIRYNAMGWYRQAPGKERELVAAITKGAGSTYYADSVKGRFTISRDNAKNTVYLQMNSLKPEDTAVYYCAAAGGTSRRTIYTAFYYWGQGTQVTVSS | high polyreactivity
9 | QVQLVESGGGLVQAGGSLRLSCAASGFTFQYNAMGWYRQAPGKERELVAGISRSGANTYYADSVKGRFTISRDTAKNTVYLQMNSLKPEDTAVYYCNNLTSRVGPDEYDYWGQGTQVTVSS | high polyreactivity
10 | QVQLVESGGGLVQAGGSLRLSCAASGYTFPTYAMGWYRQAPGKERELVAAISIDDGITYYADSVKGRFTISRDNAKNTVYLQMNSLKPEDTAVYYCAADVGIEYDYWGQGTQVTVSS | high polyreactivity
11 | QVQLVESGGGLVQAGGSLRLSCAASGSIFKGYAMGWYRQAPGKERELVASISWRGDNTYYADSVKGRFTISRDYAKNTVYLQMNSLKPEDTAVYYCNAQSREHYFFIYDYWGQGTQVTVSS | high polyreactivity
12 | QVQLLVTGGGLVQAGGTLRISCAASGSIFYSYAMGWYRQSPGKERELVAAITGGGSTNYADSVKGRFTISLDNAKNTVYLQMNSLKPEDTAVYYCATDLYPIGAVIRYDYWGQGTQVTVSS | low polyreactivity
13 | QVQLVESGGGLVQAGGSLRLSCAASGFTFHNYAMGWYRQAPGKERELVAVIRWRGGSTYYADSVKGRFTISRDNAKNSVYLQMNSLKPEDTAFYYCAKRARGSYYWGYNYWGQGTQVTVSS | high polyreactivity
14 | PVQLVESGGVLVQAGGSLRLSCAASGRTFSYYAMGWYRQAPGKERELVADNNCSGTSTDYADSVKGRFTISRDNAKNTVYLQMHSLKPEDTEVYYCPAYLIVYYGDETPYASLHDYWGQGTQVSVSS | low polyreactivity
15 | QVQLVESGGGLVQAGGSLRLSCAASGFTLTRNAMGWYRPAPGKERELVAAISWSGGTTYYADSVKGRFTISRDNAKNTVYLQMNSLKPEDTAVYYCAADSVKYGGDYWGQGTQVTVSS | high polyreactivity
16 | QVQLVESGGGLVQAGGSLRLSCAASGRIFNFYAMGWYRQAPGKERELVASITSDGSTKYADSVKGRFTISRDNAKNTVYLKMNSLKPEDTAVFYCATDTWGSYYDDDDYWGQGTQVTVSS | high polyreactivity
17 | QVHLVESGGGLFQAGGSLRLRCAASGFTFASNAMGWYIQAPGKERELVAAITRSGGSTFYADSVKGRFTISRDNAKNTVYLQMKSLKPEDTAVYYCNAAPYGFGWRVRAFTGYDYWGQGTQVTVSS | low polyreactivity
18 | QVQLVESGGGLVQAGGSLRLSCAASGSTFKYYAMGWYRQAPGKERELVARISIRGGSTYYADSVKGRFTISRDNAKNTVYLQMNSLKPEDTAVYYCAAVGYFGGYRYYYWGQGTQVTVSS | high polyreactivity
19 | QVQLVESGVGLVQAVGSHRLSCAASGFTIINNDMGWYRQAPGKEREFVAAISDSDGTTYYADSVKGRFSISRDNAKNTVYLQMNSLKPEDTAVYYCAADVVPTWEDEYWGQGTQVTVSS | low polyreactivity
20 | QVQLVESVGGLVQAGGSLRLSCAASGITFDDYAMGWYRQAPGKERELVAVISSSGGSTYYADSVKGRFTISRDNAKNTVYLQMNSLKPEDTAVYYCAARFEVWYTRRVLLGEYDYWGQGTQVTVSS | low polyreactivity
21 | QVHLVDSGVGLVQAGGSLRLSCAASGYTFVPYAMGWYRQAPGKERELVAAISSSGGSTYYADAVKGRFTISRDNAKNTVYLQMNSRKPEDSAVYYWAADYRTGQFYAGFDYWGQGTQVTVSS | high polyreactivity
22 | QVQLVESGGGLVQAGGSLRLSCAASGYTFEYYAMGWYRQAPGKERELVAAISWSGGDTYYADSVKGRFTISRDNAKNTVYLQMNSLNPEDTAVYYCAAVRYYRRRTGSYYHYDYWGQGTQVTVSS | low polyreactivity

Row | Sequence | polyreactivity (PSR sort gate)
23 | QVQLVESGGGLVQAGGSLRLSCAASGSTFKSYTMGWYRQAPGKERELVAAITSSGRTNYADSVKGRFTISRDNAKNTVYLQMNSLKPEDTAVYYCAARWYYYPLLYDYWGQGTQVTVSS | low polyreactivity
24 | QVQLVESGGGLVQAGGSLRLSCAASGFIFGYYAMGWYIPAPGKERELVAAISGSGGSTYYADSVKGRFTISRDNAKNTVYLQMNSLKPEDTAVYYCAAYGRAPGTSQRYDYRGQGTQVTVSS | high polyreactivity
25 | QVQHVESGGGLVQAGGSLRLSCAASGIIFYDYTMGWYRQAPGKERELVAVITNGDTTYYADSVKGRFTISRDNAKNTVYLQMNSLKPEDTAVYYCAADKRPPYILDYWGQGTQVTVSS | high polyreactivity
26 | QVQLVESGGGLVQAGGSLRLSCAASGRTFRLYAMGWSRQAPGKERELVAAITRGGRTNYADSVKGRFTISRDNAKTTVYLQMTSLKPEDTAVYYCAARYVERHTDYYYWGQGTQVTVSS | low polyreactivity
27 | QVQLVESGGGLVQAGGSLRLSCAASGRIFSGYTMGWYRQAPGKERELVAAITRSGGSTYYADSVKGRFTISRDNAKNTVYLQMISLKPEDTAVYYCNKVSYRHMDSWGQGTQVTVSS | high polyreactivity
28 | QVQLVESGGGLVQAGGSLRLSCAASGRTFRGYAMGWYRQAPGKERELVAAITSGGSTNYADSVKGRFTISRDNAKNTVYLQMNSLKPEDTAVYYCNRDTSKYGLWRYIYDYWGQGTQVTVSS | low polyreactivity
29 | QVQLVESGGGLVHAGGSLRLSCAASGSIFLLYAMGWYRQAPGKERELVAAITSSGGSTNYADSVKGRFTISRDNAKNTVYLQMNSLKPEDTAVYYCATAPYAYTILGSRFDYWGQGTQVTVSS | low polyreactivity
30 | QVQLVESGGGLVQAGGSLRLSCAASGYIFSGNAMGWYRQAPGKERELVAAITRSDVNTDYADSVKGRFTISRDNAKNTVYLQMNSLKPEDTAVYSCNTRVRASSVDYDEGDYWGQGTQVTVSS | low polyreactivity
31 | QVQLVESGGGLVQAGGSLRLSCAASGSIFSINAMGWYRQAPGKERELVAAISASGGSTYYADSVKGRFTISRDNAKNTVYLQMNSLKPEDTAVYYCAAEGSPTGYDYWGQGTQVTVSS | low polyreactivity
32 | QVQLVESGGGLVQAGGSLRLSCAASGSIFKIYAKGWYRQAPGKERELVASITGSGGSTYYADSVKGRFTISRDNAKNTVYLQMNSLKPEDTAVYYCAAAVLGSSKSEVDPDRPEYYYWGQGTQVTVSS | low polyreactivity
33 | QVQLVESGGGLVQAGGSLRYSCAASGSTSAWYAMGWYRQAPGKERELVAAITESGGDTYYADSVKGRFTISRDNAKNTVYLQMNSLKPEDTAVYYCNARGSARKSVPYPLEYWGQGTQVTVSS | high polyreactivity
34 | QVQLVESGGGLVQAGGSLRLSCAASGRIFNLYAMGWYRPAPGKESELVAAISGSGGRTSYADSVKGRFTISRDNAKNTVYLQMNSLKPEDTAVYYCAADYSFYTSFRYDYWGQGTQVTVSS | low polyreactivity
35 | HVQLVESGGGLVQAGGSLRLSCAASGFTFDAYAMGWYRQAPGKERELVAAISFSGGSTYYADSVKGRFTISRDNAKNTVYLQMNSLKPEDTAVYYCAAYSYTRTYGRHNYWGQGTQVTVSS | high polyreactivity
36 | QVQLVESGGGLVQAGGSLRLSCAASGRIFLFYAMGGYRQAPGKERELVAAISSTDDTYYADSVKGRFTISRDNAKNTVYLQMNSLKPEDTAVYYCAAYSIISQSEMYYWGQGTQVTVSS | low polyreactivity
37 | QFQLVESGGGLVQAGGSLRLSCAASGSTFGSYAMGWYRQAPAKESELVAAITASGGSTNYADSVKGRFTISRDNAKNTVYLQMNSLKPEDTAVYYCAADTTYSPLSIEYDYWGQGTQVTVSS | low polyreactivity
38 | QVQLVESGGGLVQAGGSLRLSCAASGFTFWRYAMGWSRQATGKERELVAVITWSGTRTYYADSVKGRFTISRDNAKNTVYLQMNSLKPEDTAVYYCAAYITDVAGRAYDYWGQGTQVTVSS | high polyreactivity
39 | QVQLVESGGGLVQAGGSLRLSCAASGSTFPHNAMGWYRPAPGKERELVAAISVGGGSTHYADSVKGRFTISRDNAKNTVYLQMNSLKPEDTAVYYCAKDYAYQYSFVTYDYWGQGTQVTVSS | low polyreactivity
40 | QVQLVESGGGLVQAGGSLRLSCAASGRIFTYYAMVWYRQAPGKERELVAAITGSGTSTYYADSVKGRFTISRDNAMNTVFLLMNSLKPEDTAVYYCAARNSFSRYYYWGQGTQVTVSS | high polyreactivity
41 | QVQLVESGGGLVQAGGSLRLSCAASGRTYYWYAMGWYRQAPGKERELVAAISSGGSTYYADSVKGRFTISRDNAKNTVSLQMISLKPEDTAVYYCAAYPQAYIADYDYWGQGTQVTVSS | low polyreactivity
42 | QVQLVESGGGLVQAGGSLRISCAASGSTSSRNAMGWYRQAPGKERELVAAITSGTRTYYADSVKGRFTISRDNAKNSVYLQRNSLKPEDTAVYYCARGRVSRYTKTDYDYWGQGSQVTVSS | high polyreactivity
43 | QVQLVESGGGFVQAGGSLRLICADSGRIFGRYAMGWYRQAPGKERELVAVISARGARTYYADSVKGRFTLSRDNAKNTDYLQMNSLKPEATEVYYCAVDQYATDDYWGQGTQVTVSS | high polyreactivity
